# Data as given in article PMC3950709 (Nucleic Acids Research, 2013).
# Changes are numbered by the printed parent chain. In names and notes the source's numbering stands. Read-outs that look alike come from different tables or passages of the source.
# T1: hIFIT1 (Homo sapiens, UniProt P09914 1-478)
# T1 sequence: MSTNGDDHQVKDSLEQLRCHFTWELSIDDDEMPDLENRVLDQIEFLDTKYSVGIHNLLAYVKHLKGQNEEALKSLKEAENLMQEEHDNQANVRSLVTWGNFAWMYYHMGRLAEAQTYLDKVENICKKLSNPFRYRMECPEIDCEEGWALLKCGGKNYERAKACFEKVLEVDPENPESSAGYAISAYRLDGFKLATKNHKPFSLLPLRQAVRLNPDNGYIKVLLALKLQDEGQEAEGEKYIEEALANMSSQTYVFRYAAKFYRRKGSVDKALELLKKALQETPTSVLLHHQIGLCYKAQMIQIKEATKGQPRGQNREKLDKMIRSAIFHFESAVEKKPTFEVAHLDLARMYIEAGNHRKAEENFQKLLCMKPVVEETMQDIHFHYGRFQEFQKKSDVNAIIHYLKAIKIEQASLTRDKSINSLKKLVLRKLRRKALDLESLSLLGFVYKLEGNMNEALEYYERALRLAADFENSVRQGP
# T2: hIFIT3 (Homo sapiens, UniProt O14879 1-490)
# T2 sequence: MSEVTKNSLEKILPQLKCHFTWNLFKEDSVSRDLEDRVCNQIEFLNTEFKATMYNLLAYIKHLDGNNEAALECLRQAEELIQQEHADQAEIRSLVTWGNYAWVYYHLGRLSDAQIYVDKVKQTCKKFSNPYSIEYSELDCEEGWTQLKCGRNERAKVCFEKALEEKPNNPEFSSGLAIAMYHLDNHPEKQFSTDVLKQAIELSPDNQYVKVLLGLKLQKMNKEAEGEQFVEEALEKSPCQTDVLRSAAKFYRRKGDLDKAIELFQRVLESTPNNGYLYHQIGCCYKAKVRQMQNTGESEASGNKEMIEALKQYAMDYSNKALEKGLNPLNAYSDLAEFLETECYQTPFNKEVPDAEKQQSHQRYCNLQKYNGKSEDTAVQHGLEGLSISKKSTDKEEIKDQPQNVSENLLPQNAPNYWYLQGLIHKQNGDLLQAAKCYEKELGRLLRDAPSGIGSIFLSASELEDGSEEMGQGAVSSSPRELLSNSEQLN
# T3: hIFIT2 (Homo sapiens, UniProt P09913 1-472)
# T3 sequence: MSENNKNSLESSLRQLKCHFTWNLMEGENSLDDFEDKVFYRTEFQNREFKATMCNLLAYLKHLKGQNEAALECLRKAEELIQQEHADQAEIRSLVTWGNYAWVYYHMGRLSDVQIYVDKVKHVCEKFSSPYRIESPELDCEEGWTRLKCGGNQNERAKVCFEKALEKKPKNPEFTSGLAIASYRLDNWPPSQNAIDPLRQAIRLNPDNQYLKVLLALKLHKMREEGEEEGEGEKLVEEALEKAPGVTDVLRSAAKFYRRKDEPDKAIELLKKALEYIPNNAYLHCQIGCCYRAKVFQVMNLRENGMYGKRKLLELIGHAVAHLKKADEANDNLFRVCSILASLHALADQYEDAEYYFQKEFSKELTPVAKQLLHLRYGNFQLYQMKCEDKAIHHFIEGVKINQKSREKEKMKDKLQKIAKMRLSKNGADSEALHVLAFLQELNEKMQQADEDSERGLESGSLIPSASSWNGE
# T4: hIFIT5 (Homo sapiens, UniProt Q13325 1-482)
# T4 sequence: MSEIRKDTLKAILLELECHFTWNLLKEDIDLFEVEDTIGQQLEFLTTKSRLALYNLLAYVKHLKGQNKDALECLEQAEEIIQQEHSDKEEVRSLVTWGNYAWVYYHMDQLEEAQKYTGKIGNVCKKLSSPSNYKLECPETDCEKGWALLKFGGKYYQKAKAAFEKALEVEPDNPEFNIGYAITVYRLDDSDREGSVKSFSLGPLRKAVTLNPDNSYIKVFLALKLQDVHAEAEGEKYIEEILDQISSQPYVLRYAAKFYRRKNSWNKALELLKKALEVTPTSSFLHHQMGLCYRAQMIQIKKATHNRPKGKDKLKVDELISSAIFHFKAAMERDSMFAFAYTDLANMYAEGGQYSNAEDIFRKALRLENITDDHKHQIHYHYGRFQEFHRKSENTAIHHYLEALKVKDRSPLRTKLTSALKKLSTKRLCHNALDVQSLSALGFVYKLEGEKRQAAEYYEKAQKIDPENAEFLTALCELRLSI
# B1: human IFIT1 (hIFIT1), recombinant wild type (natural protein, UniProt P09914 1-478, looked up)
# chain: T1 sequence
# B2: human IFIT2 (hIFIT2), recombinant (natural protein, UniProt P09913 1-472, looked up)
# chain: T3 sequence
# B3: human IFIT3 (hIFIT3), recombinant (natural protein, UniProt O14879 1-490, looked up)
# chain: T2 sequence
# B4: hIFIT1 F45A (natural protein, human, UniProt P09914 1-478, looked up)
# chain: T1 sequence with F45A
# B5: hIFIT1 Y50A (natural protein, human, UniProt P09914 1-478, looked up)
# chain: T1 sequence with Y50A
# B6: hIFIT1 W147L (natural protein, human, UniProt P09914 1-478, looked up)
# chain: T1 sequence with W147L
# B7: hIFIT1 Y218A (natural protein, human, UniProt P09914 1-478, looked up)
# chain: T1 sequence with Y218A
# B8: hIFIT1 F45A/Y50A (natural protein, human, UniProt P09914 1-478, looked up)
# chain: T1 sequence with F45A, Y50A
# B9: cap0 62-nt β-globin(G) RNA (ssRNA)
# RNA: GACACUUGCUUUUGACACAACUGUGUUUACUUGCAAUCCCCCAAAACAGACAGAAUGGUGCA
# modifications: m7Gppp cap0
# B10: cap1 62-nt β-globin(G) RNA (ssRNA)
# RNA: B9 RNA
# modifications: m7GpppGm cap1
# Assays:
# [1] = target: rabbit IFIT1B (rIFIT1B), recombinant (rabbit); experiment: native gel or EMSA
# [2] = target: native rabbit IFIT1B (native rIFIT1B) (rabbit (endogenous in rabbit reticulocyte lysate)); experiment: native gel or EMSA
# native gel or EMSA [3] = target: the molecule itself; experiment: native gel or EMSA
# native gel or EMSA [4] = target: the molecule itself; experiment: native gel or EMSA; remark: listed apart in the source
# hIFIT1 [5] = target: T1, hIFIT1; experiment: EMSA
# hIFIT3 = target: T2, hIFIT3; experiment: EMSA
# hIFIT2 = target: T3, hIFIT2; experiment: EMSA
# hIFIT5 = target: T4, hIFIT5; experiment: EMSA
# hIFIT1 [6] = target: T1, hIFIT1; experiment: EMSA; remark: listed apart in the source
molecule,measurement,setting,value
"rabbit IFIT1B (rIFIT1B), recombinant (natural protein)",stoichiometry N,[1],2
native rabbit IFIT1B (native rIFIT1B) (natural protein),stoichiometry N,[2],2
B1,binding result,native gel or EMSA [3],binds
B2,stoichiometry N,native gel or EMSA [4],2
B3,binding result,native gel or EMSA [4],binds
B4,binding result,native gel or EMSA [4],binds
B5,binding result,native gel or EMSA [4],binds
B6,binding result,native gel or EMSA [4],binds
B7,binding result,native gel or EMSA [4],binds
B8,binding result,native gel or EMSA [4],binds
B9,binding result,hIFIT1 [5],binds
same,binding result,hIFIT3,no binding
same,binding result,hIFIT2,no binding
same,binding result,hIFIT5,no binding
B10,binding result,hIFIT3,no binding
same,binding result,hIFIT2,no binding
same,binding result,hIFIT5,no binding
same,binding result,hIFIT1 [6],no binding
